Reference: patent US11142588B2, “Polypeptides which bind C-X-C chemokine receptor type 4 (CXCR4) and methods of treating or reducing the risk of fibrosis and cancer” (AdAlta Limited, priority 2015, dated 2021)
Where “and” joins values, the source holds several entries; their conditions need not be identical. Equal entries are not always repeated.

Tests used:
[1] = Bleomycin mouse model of pulmonary fibrosis; type: in vivo
Excerpt: The optimal dose of Bleomycin is 2 U/mouse and the optimal time for assessing fibrocyte recruitment was confirmed at day 4. At days 4 bronchoalvelolar lavage (BAL) fluids were collected for analysis of SDF-1 concentration. One half of the lung tissue was used to make single cell suspensions of the lung and the cells used for flow cytometry and assayed for CD45+, CXCR4+ and Collagen1+ (fibrocytes). The other half of the lung tissue was Sircol stained for the presence of collagen 1 and RNA will be tested for Col-1, Col-3 and SDF-1.
SDF-1, fibrocytes and collagen deposition were monitored at Day 4. Groups were dosed with the i-body just prior to administration with Bleomycin. One half of the lung tissue was minced and washed in PBS and used to make single cell suspensions of the lung with Collagenase A and dispase treatment. The cells were then used for flow cytometry and assayed for CD45+, CXCR4+ and Collagen1+ fibrocytes. […]

[2] = biological target: T1, human CXCR4 (CXCR4 positive lipoparticles) (Homo sapiens, UniProt P61073); assay: Biacore SPR kinetic binding to immobilised CXCR4 lipoparticles
T1 construct: purchased Integral Molecular LEV-101B
Protocol: (FIGS. 2A-2C, 5A-5C, 11A-11D, 17A-17B) Kinetic binding analysis of selected i-bodies with immobilized CXCR4 lipoparticles were performed at 25° C. using Biacore T200 instrument (GE Healthcare, Uppsala, Sweden). Streptavidin immobilization was performed in 1×HBS-P+ running buffer (10 mM HEPES, 150 mM NaCl, 0.05% [v/v] Tween-20). […] All binding experiments involving lipoparticles were performed with 1×HBS/BSA (10 mM HEPES, 150 mM NaCl, 1 mg/mL BSA) as instrument running buffer. […] In order to determine binding kinetics, serial dilutions (three-fold) of i-bodies diluted in 1×HBS/BSA were injected over immobilized lipoparticles with the association and dissociation phases monitored for 60 sec and 600 sec, respectively. A control measurement of the instrument running buffer (“zero-buffer” blank) solution was also included for double referencing purposes. Collected experimental data were processed using Scrubber software (www.biologic.com.au). Kinetic parameters (ka=association and kd=dissociation rate constants) and equilibrium dissociation constant (KD=kd/ka) were derived by fitting each set of experimental data to a Langmuir 1:1 binding model. All interaction measurements were performed in triplicate and the derived binding parameters reported as averaged values±standard deviation.

CXCR4 = CXCR4 (Homo sapiens, UniProt P61073); assay: β-arrestin BRET assay, antagonist mode with 100 nM SDF-1; type: cell-based; design: expressed in transfected cells; host or cells: HEK293FT; details: various concentrations
Excerpt: (FIGS. 3A-3F and 14) BRET was used in this study to assess the real-time kinetic profiles resulting from any consequent increase in proximity, building upon the previously validated monitoring of GPCR/β-arrestin interactions utilizing BRET. BRET occurs between a complementary Renilla luciferase (Rluc) variant as donor and green fluorescent protein variant as acceptor. Upon Rluc-catalyzed oxidation of the coelenterazine substrate (such as coelenterazine h for first generation BRET (BRET) or EnduRen for extended BRET (eBRET), energy is transferred to the acceptor if within 10 nm, resulting in acceptor light emission peaking at a characteristic wavelength. BRET (3-arrestin assays were carried out as described previously (See, H. B., Seeber, R. M., Kocan, M., Eidne, K. A. and Pfleger, K. D. (2011) ‘Application of G protein-coupled receptor-heteromer identification technology to monitor beta-arrestin recruitment to G protein-coupled receptor heteromers’, Assay Drug Dev Technol, 9(1), 21-30, 10.1089/adt.2010.0336). CXCR4/Rluc8 cDNA constructs were generated from plasmids containing the respective receptor cDNA tagged with Rluc kindly provided by Aron Chakera (Oxford University, United Kingdom). The β-arrestin 2/Venus cDNA construct was prepared previously from pCS2-Venus kindly provided by Atsushi Miyawaki (RIKEN Brain Science Institute, Wako-city, Japan). BRET technology in cells transiently expressing CXCR4/Rluc8 and β-arrestin2/Venus in the presence of 100 nM SDF-1 agonist was evaluated in the presence of the CXCR4 agonist SDF-1/CXCL12 and the i-bodies. HEK293FT cells were maintained at 37° C., 5% CO2 in Complete Media (Dulbecco's modified Eagle's medium containing 0.3 mg/mL glutamine, 100 IU/mL penicillin, and […] streptomycin; Gibco) supplemented with 10% fetal calf serum (FCS) and […] Geneticin (Gibco). Transfections were carried out 24 h after seeding using Genejuice (Novagen) according to manufacturer's instructions. Cells were harvested with 0.05% Trypsin-EDTA (Gibco). HEK293FT cells were transfected using FuGene6 (Promega). 5 μM coelenterazine h (Promega) in HBSS was used as the luciferase substrate solution. Cells were harvested 24 h post-transfection in HEPES-buffered phenol red-free Complete Medium containing 5% FCS and added to a poly-L-lysine-coated white 96-well plate (Nunc). Dose-response curves were generated using BRET, with medium in the plate being replaced with PBS containing […] coelenterazine h (Molecular Probes) and assays carried out immediately. For these assays, 48 h post-transfection, the plate was incubated at […], 5% CO2 for 2 h with […] EnduRen (Promega) to ensure substrate equilibrium was reached. All BRET measurements were taken at 37° C. using the VICTOR Light plate reader with Wallac 1420 software (PerkinElmer). Filtered light emissions were sequentially measured at 400-475 and 520-540 nm. The BRET signal was calculated by subtracting the ratio of 520-540 nm emission over 400-475 nm emission for a vehicle-treated cell sample from the same ratio for a second aliquot of the same cells treated with agonist (in this instance in the presence of SDF-1 or CXCL12) and i-body (ADCX-99, ADCX-272, ACDX-6, ACDX-306, ADCX-668) at various concentrations. Data are mean±S.E.M. of four independent experiments carried out in duplicate.
Binding of the i-bodies to CXCR4 were examined in a β-Arrestin BRET assay as described in See, Heng B et al (2011) Assay and Drug Development Technologies 9(1):21-30. The i-bodes were examined at ten concentrations with and without 100 nM SDF-1 with the addition of ‘vehicle’ and ‘SDF-1+vehicle’ controls in order to characterise if the i-bodies are agonist or antagonists of CXCR4 activity.

[3] = off-rate, CXCR4 expressed on lipoparticles (Table 3)
[4] = CXCR4 expressed on lipoparticles (Table 4)

T1 sequence (P61073 whole entry): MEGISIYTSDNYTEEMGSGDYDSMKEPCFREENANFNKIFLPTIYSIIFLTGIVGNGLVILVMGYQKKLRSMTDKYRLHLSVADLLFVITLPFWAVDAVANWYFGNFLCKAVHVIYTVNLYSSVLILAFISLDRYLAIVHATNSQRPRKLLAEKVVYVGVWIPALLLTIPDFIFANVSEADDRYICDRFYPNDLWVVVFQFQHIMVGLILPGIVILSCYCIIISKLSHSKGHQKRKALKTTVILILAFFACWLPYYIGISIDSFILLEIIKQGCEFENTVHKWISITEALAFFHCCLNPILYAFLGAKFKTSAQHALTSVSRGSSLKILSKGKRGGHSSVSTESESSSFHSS
CXCR4, sequence (P61073 whole entry): as above

Cc1ccc(=O)n(-c2ccccc2)c1 [Pirfenidone, reference compound]
recruitment of fibrocytes into the lungs ([1]; day 4, dose not given): able to block recruitment of fibrocytes | collagen content of the lung (Sircol) ([1]; positive controls, dose not stated): reduction in collagen

B1: AM4-386: affinity matured i-body, CDR1 SEQ ID NO: 95, CDR3 SEQ ID NO: 96 (protein)
chain: LQVDIVPSQGEISVGESKFFLCQVAGITSEGHISWFSPNGEKLTPNQQRISVVWNDDSSSTLTIYNANIDDAGIYKCVVETTVFNEVMRLGNGAHVYEATVNVKIFQ
dissociation rate constant (kd) [2, 3]: 0.015

B2: AM3-466: affinity matured CXCR4 i-body, SEQ ID NO: 64 (protein)
chain: LQVDIVPSQGEISVGESKFFLCQVAGSGSHQRISWFSPNGEKLTPNQQRISVVWNDDSSSTLTIYNANIDDAGIYKCVVWRTGAYRHRALVLGEATVNVKIFQ
modifications: protein sequence encoding AM3-466
Ka [2, 4]: 465000 M⁻¹ s⁻¹ and 426000 M⁻¹ s⁻¹ | dissociation rate constant (kd) [2, 3]: 0.00784

B3: AM4-208: affinity matured i-body, CDR1 SEQ ID NO: 85, CDR3 SEQ ID NO: 86 (protein)
chain: LQVDIVPSQGEISVGESKFFLCQVAGSKSEIRISWFSPNGEKLTPNQQRISVVWNDDSSSTLTIYNANIDDAGIYKCVVYRTGGYRHRYLVLGEATVNVKIFQ
dissociation rate constant (kd) [2, 3]: 0.01283

B4: AM3-32: affinity matured i-body, CDR1 SEQ ID NO: 91, CDR3 SEQ ID NO: 92 (protein)
chain: LQVDIVPSQGEISVGESKFFLCQVAGSGSGITISWFSPNGEKLTPNQQRISVVWNDDSSSTLTIYNANIDDAGIYKCVVWRTGVYRHRALVLGEATVNVKIFQ
dissociation rate constant (kd) [2, 3]: 0.0136

B5: AM4-203: affinity matured i-body, CDR1 SEQ ID NO: 101, CDR3 SEQ ID NO: 102 (protein)
chain: LQVDIVPSQGEISVGESKFFLCQVAGSYGDIRISWFSPNGEKLTPNQQRISVVWNDDSSSTLTIYNANIDDAGIYKCVVYRTGGWRHRYLVLGEATVNVKIFQ
dissociation rate constant (kd) [2, 3]: 0.01621

B6: AM4-239: affinity matured i-body, CDR1 SEQ ID NO: 89, CDR3 SEQ ID NO: 90 (protein)
chain: LQVDIVPSQGEISVGESKFFLCQVAGAYSDIRISWFSPNGEKLTPNQQRISVVWNDDSSSTLTIYNANIDDAGIYKCVVYRTGGYRHRYLVLGEATVNVKIFQ
dissociation rate constant (kd) [2, 3]: 0.01356

B7: AM3-182: affinity matured i-body, CDR1 SEQ ID NO: 99, CDR3 SEQ ID NO: 100 (protein)
chain: LQVDIVPSQGEISVGESKFFLCQVAGVGNHIRISWFSPNGEKLTPNQQRISVVWNDDSSSTLTIYNANIDDAGIYKCVVWRAGGYRHRALVLGEATVNVKIFQ
dissociation rate constant (kd) [2, 3]: 0.01562

B8: AM4-352: affinity matured i-body, CDR1 SEQ ID NO: 97, CDR3 SEQ ID NO: 98 (protein)
chain: LQVDIVPSQGEISVGESKFFLCQVAGSKDDIRISWFSPNGEKLTPNQQRISVVWNDDSSSTLTIYNANIDDAGIYKCVVYRTGGYRHRYLVLGEATVNVKIFQ
dissociation rate constant (kd) [2, 3]: 0.0152

B9: AM4-774: affinity matured i-body, CDR1 SEQ ID NO: 83, CDR3 SEQ ID NO: 84 (protein)
chain: LQVDIVPSQGEISVGESKFFLCQVAGSKSVIRISWFSPNGEKLTPNQQRISVVWNDDSSSTLTIYNANIDDAGIYKCVVYRTGGYRHRYLVLGEATVNVKIFQ
dissociation rate constant (kd) [2, 3]: 0.0105

B10: AM4-661: affinity matured CXCR4 i-body, SEQ ID NO: 60 (protein)
chain: LQVDIVPSQGEISVGESKFFLCQVAGSKSDFRISWFSPNGEKLTPNQQRISVVWNDDSSSTLTIYNANIDDAGIYKCVVYRTGGYRHRYLVLGEATVNVKIFQ
modifications: protein sequence encoding AM4-661
Ka [2, 4]: 966000 M⁻¹ s⁻¹ and 983000 M⁻¹ s⁻¹ | dissociation rate constant (kd) [2, 4]: 9210 M⁻¹ s⁻¹ and 9500 M⁻¹ s⁻¹ | dissociation rate constant (kd) [2, 3]: 0.00955

B11: AM4-757: affinity matured i-body, CDR1 SEQ ID NO: 93, CDR3 SEQ ID NO: 94 (protein)
chain: LQVDIVPSQGEISVGESKFFLCQVAGSKSAIRISWFSPNGEKLTPNQQRISVVWNDDSSSTLTIYNANIDDAGIYKCVVYRTGSYRHRYLVLGEATVNVKIFQ
dissociation rate constant (kd) [2, 3]: 0.01488

B12: AM4-613: affinity matured CXCR4 i-body, SEQ ID NO: 52 (protein)
chain: LQVDIVPSQGEISVGESKFFLCQVAGSKSDVRISWFSPNGEKLTPNQQRISVVWNDDSSSTLTIYNANIDDAGIYKCVVWRTGGYRHRYLVLGEATVNVKIFQ
modifications: protein sequence encoding AM4-613
Ka [2, 4]: 1.334e+06 M⁻¹ s⁻¹ | dissociation rate constant (kd) [2, 4]: 10440 M⁻¹ s⁻¹ | dissociation rate constant (kd) [2, 3]: 0.01236

B13: ADCX-6: CXCR4 binding i-body, SEQ ID NO: 17 (protein)
chain: LQVDIVPSQGEISVGESKFFLCQVAGLTSLEGISWFSPNGEKLTPNQQRISVVWNDDSSSTLTIYNANIDDAGIYKCVVEDHPQYSKMEEATVNVKIFQ
modifications: protein sequence encoding ADCX-6
β-arrestin activity (CXCR4): some degree of inhibition
